Reference: article PMC5685503

Biological target: isolated phosphodiesterase (PDE) domain of RhoPDE (Salpingoeca rosetta) (UniProt F2TZN0)
Assay: SEC

- stoichiometry N: 2
Substance: isolated phosphodiesterase (PDE) domain of RhoPDE (from UniProt F2TZN0 386-702) (domain or fragment)
